From US20220273789A1

What was measured:
[1] = molecular target: human IgG (human); assay: BLI (Octet), gEgI on Ni-NTA sensor, hIgG in solution
[2] = molecular target: human IgG (human); assay: BLI Octet, construct on Ni-NTA sensor, hIgG in solution

## HSV2-gE_P317S V340W_gI (from UniProt P89475 21-416; P06764 21-256) (receptor)
[1]
  Kd: 351 nM
  Response: 0.131 nm
  koff: 0.00282 s⁻¹
  kon: 8050 M⁻¹ s⁻¹

## HSV2-gE_P317S S338L_gI (from UniProt P89475 21-416; P06764 21-256) (receptor)
[1]
  Kd: 167 nM
  Response: 0.549 nm
  koff: 0.00163 s⁻¹
  kon: 9770 M⁻¹ s⁻¹

## HSV2-gE_H245S P319L_gI (from UniProt P89475 21-416; P06764 21-256) (receptor)
[1]
  Kd: 292 nM
  Response: 0.323 nm
  koff: 0.0019 s⁻¹
  kon: 6520 M⁻¹ s⁻¹

## HSV2-gE_R314G F322P_gI (from UniProt P89475 21-416; P06764 21-256) (receptor)
[1]
  Kd: 181 nM
  Response: 0.439 nm
  koff: 0.00209 s⁻¹
  kon: 11500 M⁻¹ s⁻¹

## HSV2-gE_P318I S338G_gI (from UniProt P89475 21-416; P06764 21-256) (receptor)
[1]
  Kd: 335 nM
  Response: 0.237 nm
  koff: 0.00297 s⁻¹
  kon: 8870 M⁻¹ s⁻¹

## HSV2-gE_P318R S338L_gI (from UniProt P89475 21-416; P06764 21-256) (receptor)
[1]
  Kd: 176 nM
  Response: 0.49 nm
  koff: 0.00138 s⁻¹
  kon: 7870 M⁻¹ s⁻¹

## HSV2-gE_P318D S338H_gI (from UniProt P89475 21-416; P06764 21-256) (receptor)
[1]
  Kd: 280 nM
  Response: 0.18 nm
  koff: 0.00215 s⁻¹
  kon: 7690 M⁻¹ s⁻¹

## HSV2-gE_R314G P318D_gI (from UniProt P89475 21-416; P06764 21-256) (receptor)
[1]
  Kd: 369 nM
  Response: 0.122 nm
  koff: 0.0033 s⁻¹
  kon: 8930 M⁻¹ s⁻¹

## HSV2-gE_H245G P319G_gI (from UniProt P89475 21-416; P06764 21-256) (receptor)
[2]
  Kd: 2010 nM
  Response (nm): 0.157 nm
  koff: 0.00357 s⁻¹
  kon: 1780 M⁻¹ s⁻¹

## HSV2-gE_R314Y_gI (from UniProt P89475 21-416; P06764 21-256) (receptor)
[2]
  Kd: 600 nM
  Response (nm): 0.385 nm
  koff: 0.00441 s⁻¹
  kon: 7350 M⁻¹ s⁻¹

## HSV2-gE_H245G R320T_gI (from UniProt P89475 21-416; P06764 21-256) (receptor)
[2]
  Kd: 591 nM
  Response (nm): 0.279 nm
  koff: 0.00319 s⁻¹
  kon: 5400 M⁻¹ s⁻¹

## HSV2-gE_A248G V340M_gI (from UniProt P89475 21-416; P06764 21-256) (receptor)
[2]
  Kd: 571 nM
  Response (nm): 0.452 nm
  koff: 0.0052 s⁻¹
  kon: 9110 M⁻¹ s⁻¹

## HSV2-gE_A248G F322I_gI (from UniProt P89475 21-416; P06764 21-256) (receptor)
[2]
  Kd: 465 nM
  Response (nm): 0.373 nm
  koff: 0.00439 s⁻¹
  kon: 9450 M⁻¹ s⁻¹

## HSV2-gE_F322P_gI (from UniProt P89475 21-416; P06764 21-256) (receptor)
[2]
  Kd: 160 nM
  Response (nm): 0.807 nm
  koff: 0.00223 s⁻¹
  kon: 13900 M⁻¹ s⁻¹

## HSV2-gE_S338L_gI (from UniProt P89475 21-416; P06764 21-256) (receptor)
[2]
  Kd: 439 nM
  Response (nm): 0.467 nm
  koff: 0.00223 s⁻¹
  kon: 5080 M⁻¹ s⁻¹

## HSV2-gE_H245G P319L_gI (from UniProt P89475 21-416; P06764 21-256) (receptor)
[2]
  Kd: 327 nM
  Response (nm): 0.361 nm
  koff: 0.00189 s⁻¹
  kon: 5760 M⁻¹ s⁻¹

## HSV2-gE_H245I_gI (from UniProt P89475 21-416; P06764 21-256) (receptor)
[2]
  Kd: 183 nM
  Response (nm): 1.02 nm
  koff: 0.00301 s⁻¹
  kon: 16500 M⁻¹ s⁻¹

## HSV2-gE_F322K_gI (from UniProt P89475 21-416; P06764 21-256) (receptor)
[2]
  Kd: 278 nM
  Response (nm): 0.599 nm
  koff: 0.00301 s⁻¹
  kon: 10800 M⁻¹ s⁻¹

## HSV2-gE_R320G_gI (from UniProt P89475 21-416; P06764 21-256) (receptor)
[2]
  Kd: 1180 nM
  Response (nm): 0.322 nm
  koff: 0.00462 s⁻¹
  kon: 3920 M⁻¹ s⁻¹

## HSV2-gE_F322A_gI (from UniProt P89475 21-416; P06764 21-256) (receptor)
[2]
  Kd: 167 nM
  Response (nm): 0.86 nm
  koff: 0.00273 s⁻¹
  kon: 16400 M⁻¹ s⁻¹

## HSV2-gE_V340Q_gI (from UniProt P89475 21-416; P06764 21-256) (receptor)
[2]
  Kd: 239 nM
  Response (nm): 0.32 nm
  koff: 0.00218 s⁻¹
  kon: 9090 M⁻¹ s⁻¹

## HSV2-gE_A248K F322P_gI (from UniProt P89475 21-416; P06764 21-256) (receptor)
[2]
  Kd: 498 nM
  Response (nm): 0.427 nm
  koff: 0.00461 s⁻¹
  kon: 9250 M⁻¹ s⁻¹

## HSV2-gE_R314K_gI (from UniProt P89475 21-416; P06764 21-256) (receptor)
[2]
  Kd: 583 nM
  Response (nm): 0.461 nm
  koff: 0.00549 s⁻¹
  kon: 9420 M⁻¹ s⁻¹

## HSV2-gE_H245S_gI (from UniProt P89475 21-416; P06764 21-256) (receptor)
[2]
  Kd: 866 nM
  Response (nm): 0.46 nm
  koff: 0.00658 s⁻¹
  kon: 7600 M⁻¹ s⁻¹

## HSV2-gE_R320M_gI (from UniProt P89475 21-416; P06764 21-256) (receptor)
[2]
  Kd: 336 nM
  Response (nm): 0.722 nm
  koff: 0.00462 s⁻¹
  kon: 13700 M⁻¹ s⁻¹

## HSV2-gE_A248T V340R_gI (from UniProt P89475 21-416; P06764 21-256) (receptor)
[2]
  Kd: < 0.001 nM
  Response (nm): 0.183 nm
  koff: < 1e-07 s⁻¹
  kon: 5000 M⁻¹ s⁻¹

## HSV2-gE_H245A P319L_gI (from UniProt P89475 21-416; P06764 21-256) (receptor)
[2]
  Kd: 449 nM
  Response (nm): 0.265 nm
  koff: 0.00273 s⁻¹
  kon: 6080 M⁻¹ s⁻¹

## HSV2-gE_R320A_gI (from UniProt P89475 21-416; P06764 21-256) (receptor)
[2]
  Kd: 1500 nM
  Response (nm): 0.295 nm
  koff: 0.00505 s⁻¹
  kon: 3360 M⁻¹ s⁻¹

## HSV2-gE_A248G F322P_gI (from UniProt P89475 21-416; P06764 21-256) (receptor)
[2]
  Kd: 320 nM
  Response (nm): 0.497 nm
  koff: 0.00367 s⁻¹
  kon: 11500 M⁻¹ s⁻¹

## HSV2-gE_P317N_gI (from UniProt P89475 21-416; P06764 21-256) (receptor)
[2]
  Kd: 500 nM
  Response (nm): 0.381 nm
  koff: 0.00459 s⁻¹
  kon: 9180 M⁻¹ s⁻¹

## HSV2-gE_V340R_gI (from UniProt P89475 21-416; P06764 21-256) (receptor)
[2]
  Kd: < 0.001 nM
  Response (nm): 0.201 nm
  koff: < 1e-07 s⁻¹
  kon: 6650 M⁻¹ s⁻¹

## HSV2-gE_A248G_gI (from UniProt P89475 21-416; P06764 21-256) (receptor)
[2]
  Kd: 560 nM
  Response (nm): 0.506 nm
  koff: 0.00551 s⁻¹
  kon: 9840 M⁻¹ s⁻¹

## HSV2-gE_R320V_gI (from UniProt P89475 21-416; P06764 21-256) (receptor)
[2]
  Kd: 469 nM
  Response (nm): 0.52 nm
  koff: 0.00425 s⁻¹
  kon: 9060 M⁻¹ s⁻¹

## HSV2-gE_S338G_gI (from UniProt P89475 21-416; P06764 21-256) (receptor)
[2]
  Kd: 339 nM
  Response (nm): 0.562 nm
  koff: 0.00438 s⁻¹
  kon: 12900 M⁻¹ s⁻¹

## HSV2-gE_H245V_gI (from UniProt P89475 21-416; P06764 21-256) (receptor)
[2]
  Kd: 486 nM
  Response (nm): 0.745 nm
  koff: 0.00573 s⁻¹
  kon: 11800 M⁻¹ s⁻¹

## HSV2-gE_R314S_gI (from UniProt P89475 21-416; P06764 21-256) (receptor)
[2]
  Kd: 406 nM
  Response (nm): 0.585 nm
  koff: 0.00515 s⁻¹
  kon: 12700 M⁻¹ s⁻¹

## HSV2-gE_R314M_gI (from UniProt P89475 21-416; P06764 21-256) (receptor)
[2]
  Kd: 608 nM
  Response (nm): 0.519 nm
  koff: 0.00592 s⁻¹
  kon: 9730 M⁻¹ s⁻¹

## HSV2-gE_A248G V340R_gI (from UniProt P89475 21-416; P06764 21-256) (receptor)
[2]
  Kd: 8960 nM
  Response (nm): 0.303 nm
  koff: 0.00461 s⁻¹
  kon: 514 M⁻¹ s⁻¹

## HSV2-gE_R320T_gI (from UniProt P89475 21-416; P06764 21-256) (receptor)
[2]
  Kd: 606 nM
  Response (nm): 0.37 nm
  koff: 0.0042 s⁻¹
  kon: 6940 M⁻¹ s⁻¹

## HSV2-gE_P319L_gI (from UniProt P89475 21-416; P06764 21-256) (receptor)
[2]
  Kd: 1390 nM
  Response (nm): 0.328 nm
  koff: 0.00444 s⁻¹
  kon: 3190 M⁻¹ s⁻¹

## HSV2-gE_P318D_gI (from UniProt P89475 21-416; P06764 21-256) (receptor)
[2]
  Kd: < 0.001 nM
  Response (nm): 0.0995 nm
  koff: < 1e-07 s⁻¹
  kon: 5180 M⁻¹ s⁻¹

## HSV2-gE_A248K V340R_gI (from UniProt P89475 21-416; P06764 21-256) (receptor)
[2]
  Kd: < 0.001 nM
  Response (nm): 0.0449 nm
  koff: < 1e-07 s⁻¹
  kon: 3040 M⁻¹ s⁻¹

## HSV2-gE_R320H_gI (from UniProt P89475 21-416; P06764 21-256) (receptor)
[2]
  Kd: 4750 nM
  Response (nm): 0.247 nm
  koff: 0.00421 s⁻¹
  kon: 886 M⁻¹ s⁻¹

## HSV2-gE_R314Q_gI (from UniProt P89475 21-416; P06764 21-256) (receptor)
[2]
  Kd: 498 nM
  Response (nm): 0.568 nm
  koff: 0.00535 s⁻¹
  kon: 10800 M⁻¹ s⁻¹

## HSV2-gE_P318Q_gI (from UniProt P89475 21-416; P06764 21-256) (receptor)
[2]
  Kd: 443 nM
  Response (nm): 0.152 nm
  koff: 0.00139 s⁻¹
  kon: 3150 M⁻¹ s⁻¹

## HSV2-gE_P317L_gI (from UniProt P89475 21-416; P06764 21-256) (receptor)
[2]
  Kd: 5110 nM
  Response (nm): 0.161 nm
  koff: 0.00181 s⁻¹
  kon: 354 M⁻¹ s⁻¹

## HSV2-gE_S338E_gI (from UniProt P89475 21-416; P06764 21-256) (receptor)
[2]
  Kd: 348 nM
  Response (nm): 0.616 nm
  koff: 0.0043 s⁻¹
  kon: 12300 M⁻¹ s⁻¹

## HSV2-gE_P317G_gI (from UniProt P89475 21-416; P06764 21-256) (receptor)
[2]
  Kd: 555 nM
  Response (nm): 0.338 nm
  koff: 0.00429 s⁻¹
  kon: 7740 M⁻¹ s⁻¹
